Data published in FireProtDB (doi:10.1111/febs.12694).
Values joined by “and” are separate entries in the source; they are usually repeats but may differ in a detail not shown here. Identical values can stand only once.

Settings: Halobacterium salinarum (strain ATCC 700922 / JCM 11081 / NRC-1), Thermal, transition: 2, whole UniProt chain shown

B1: Bacteriorhodopsin wild type, P02945 (protein)
chain: MLELLPTAVEGVSQAQITGRPEWIWLALGTALMGLGTLYFLVKGMGVSDPDAKKFYAITTLVPAIAFTMYLSMLLGYGLTMVPFGGEQNPIYWARYADWLFTTPLLLLDLALLVDADQGTILALVGADGIMIGTGLVGALTKVYSYRFVWWAISTAAMLYILYVLFFGFTSKAESMRPEVASTFKVLRNVTVVLWSAYPVVWLIGSEGAGIVPLNIETLLFMVLDVSAKVGFGLILLRSRAIFGEAEAPEPSAGDGAAATSD
Tm (pH 3.5, DSC): 76.6 °C
Tm (pH 4, UV spectroscopy): 69.2 °C and 67 °C
Tm (pH 7, DSC): 98.2 °C
Tm (pH 7, UV spectroscopy): 90.5 °C
Tm (pH 9, DSC): 94.5 °C
Tm (pH 9.5, UV spectroscopy, glycine buffer): 86 °C
